Experiments:
[1] = molecular target: GST-Bahcc1^TTD (murine Bahcc1 amino acids 1904-2044) (mouse, UniProt Q3UHR0 1904-2044); assay: pull-down
[2] = molecular target: GST-53BP1^TTD (amino acids 1235-1709) (UniProt Q12888 1235-1709); assay: pull-down
GST-53BP1^TTD (amino acids 1235-1709), sequence (Q12888 1235-1709): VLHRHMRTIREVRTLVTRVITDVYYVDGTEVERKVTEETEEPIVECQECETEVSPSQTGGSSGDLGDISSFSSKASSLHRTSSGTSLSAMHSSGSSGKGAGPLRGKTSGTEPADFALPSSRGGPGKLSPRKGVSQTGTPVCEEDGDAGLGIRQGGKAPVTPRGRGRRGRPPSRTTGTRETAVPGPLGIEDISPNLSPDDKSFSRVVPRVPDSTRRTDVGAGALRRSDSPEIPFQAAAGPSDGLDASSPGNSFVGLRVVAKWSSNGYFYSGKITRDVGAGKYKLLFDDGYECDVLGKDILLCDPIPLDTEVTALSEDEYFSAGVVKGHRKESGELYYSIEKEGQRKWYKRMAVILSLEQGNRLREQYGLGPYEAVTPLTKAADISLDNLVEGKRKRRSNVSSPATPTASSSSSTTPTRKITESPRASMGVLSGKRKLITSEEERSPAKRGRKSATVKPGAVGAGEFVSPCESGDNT

GST-Bahcc1^TTD (murine Bahcc1 amino acids 1904-2044), sequence (Q3UHR0 1904-2044): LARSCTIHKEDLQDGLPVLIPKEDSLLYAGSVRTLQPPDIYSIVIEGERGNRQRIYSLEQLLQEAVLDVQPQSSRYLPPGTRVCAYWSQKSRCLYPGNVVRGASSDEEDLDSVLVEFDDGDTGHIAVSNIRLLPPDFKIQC

Row | binding result [1] | binding result [2] | Binder
1 | binds | – | GKGGAKRHRKVLRDNIQ (peptide, UniProt P62805 12-28, looked up, monomethyl-lysine at K20; biotin (position not given)) [biotinylated H4 peptide, amino acids 11 to 27, H4K20me1]
2 | – | binds | GKGGAKRHRKVLRDNIQ (peptide, UniProt P62805 12-28, looked up, dimethyl-lysine at K20; biotin (position not given)) [biotinylated H4 peptide, amino acids 11 to 27, H4K20me2]

Source: paper PMC12219854 (Nature Communications, 2025)
